18 molecules from US20030068675, “Position dependent recognition of GNN nucleotide triplets by zinc fingers” (published 2003) can be followed below.

Common to all, as to assay: EMSA
What all share (conditions): tags: MBP fusion
(In general: Mobility shift assays separate free from complexed probe on a gel.)

One data set concerns the target ZFP SBS#750 (synthetic). In a few lines: (§1)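 Purified ZFP was titrated against labeled double-stranded target (1 nM or lower, at least 10-fold below expected Kd) carrying the natural binding site with flanks. Binding buffer was 10 mM Tris pH 7.5, 100 mM KCl, 1 mM MgCl2, 0.1 mM ZnCl2, 5 mM DTT, 10% glycerol, 0.02% BSA, with equilibration for at least 45 min. Bound and free target were separated on a 10% polyacrylamide gel.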

Another data set concerns the target T1, ZFP SBS#827 (synthetic).
T1 chain: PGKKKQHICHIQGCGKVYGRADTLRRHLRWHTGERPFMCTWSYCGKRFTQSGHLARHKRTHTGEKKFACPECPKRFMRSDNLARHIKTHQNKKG
In short, it runs like this:
as §1

The next data set has as its target T2, ZFP SBS#826 (synthetic).
T2 chain: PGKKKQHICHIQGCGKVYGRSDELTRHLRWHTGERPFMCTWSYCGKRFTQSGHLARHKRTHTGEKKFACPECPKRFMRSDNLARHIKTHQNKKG
In a few lines:
as §1

The target in another data set is T3, ZFP SBS#905 (synthetic).
T3 chain: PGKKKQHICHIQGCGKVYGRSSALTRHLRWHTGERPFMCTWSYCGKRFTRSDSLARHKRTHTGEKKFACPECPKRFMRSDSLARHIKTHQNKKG
In a few lines: as §1

Another data set deals with T4, ZFP SBS#926 (synthetic).
T4 chain: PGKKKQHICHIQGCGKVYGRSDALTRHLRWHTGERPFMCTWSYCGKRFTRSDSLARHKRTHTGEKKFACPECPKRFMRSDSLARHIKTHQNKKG
In short, it runs like this: as §1

A further data set has as its target ZFP SBS#920 (synthetic). In short, it runs like this: as §1
A further data set has as its target T5, ZFP SBS#256 (synthetic).
T5 chain: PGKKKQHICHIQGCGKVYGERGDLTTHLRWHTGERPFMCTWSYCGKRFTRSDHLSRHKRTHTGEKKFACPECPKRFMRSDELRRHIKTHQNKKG
In a few lines:
as §1

The next data set has as its target ZFP SBS#909 (synthetic). In a few lines: as §1
Another data set has as its target T6, ZFP SBS#759 (synthetic).
T6 chain: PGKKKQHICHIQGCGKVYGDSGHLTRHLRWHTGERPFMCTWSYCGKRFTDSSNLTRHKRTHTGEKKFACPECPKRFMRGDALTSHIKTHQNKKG
In a few lines:
as §1

A further data set deals with T7, ZFP SBS#760 (synthetic).
T7 chain: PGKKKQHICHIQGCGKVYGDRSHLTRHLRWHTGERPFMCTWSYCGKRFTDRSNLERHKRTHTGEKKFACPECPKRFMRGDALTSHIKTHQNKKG
In short, it runs like this: as §1

A further data set addresses T8, ZFP SBS#748 (synthetic).
T8 chain: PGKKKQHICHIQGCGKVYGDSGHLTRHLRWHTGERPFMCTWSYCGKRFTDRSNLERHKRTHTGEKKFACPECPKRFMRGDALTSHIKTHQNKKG
In short, it runs like this:
as §1

Another data set has as its target T9, ZFP SBS#749 (synthetic).
T9 chain: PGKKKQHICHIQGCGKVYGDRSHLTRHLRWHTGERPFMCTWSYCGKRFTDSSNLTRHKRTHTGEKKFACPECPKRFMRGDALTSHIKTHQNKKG
In short, it runs like this: as §1

The next data set deals with T10, ZFP SBS#431 (synthetic).
T10 chain: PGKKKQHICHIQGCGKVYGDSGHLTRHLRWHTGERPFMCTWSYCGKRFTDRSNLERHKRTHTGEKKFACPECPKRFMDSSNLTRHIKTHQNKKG
In short, it runs like this:
as §1

Another data set deals with ZFP SBS#904 (synthetic). In a few lines:
as §1

In another data set the target is T11, ZFP SBS#776 (synthetic).
T11 chain: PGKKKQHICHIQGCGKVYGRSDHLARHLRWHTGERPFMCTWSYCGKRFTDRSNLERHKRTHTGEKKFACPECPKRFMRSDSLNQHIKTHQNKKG
In a few lines: as §1

The target of a further data set is T12, ZFP SBS#777 (synthetic).
T12 chain: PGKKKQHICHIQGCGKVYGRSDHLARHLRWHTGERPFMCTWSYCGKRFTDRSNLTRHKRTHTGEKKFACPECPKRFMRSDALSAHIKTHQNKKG
In a few lines: as §1

In another data set the target is T13, ZFP SBS#787 (synthetic).
T13 chain: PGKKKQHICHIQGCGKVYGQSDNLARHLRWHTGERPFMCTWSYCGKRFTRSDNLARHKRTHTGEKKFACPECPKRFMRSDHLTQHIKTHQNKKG
In a few lines:
as §1

The next data set deals with ZFP SBS#914 (synthetic). In short, it runs like this:
as §1

The target in another data set is ZFP SBS#915 (synthetic). In short, it runs like this:
as §1

A further data set concerns the target ZFP SBS#916 (synthetic). In short, it runs like this: as §1
A further data set concerns the target ZFP SBS#921 (synthetic). In a few lines:
as §1

For the next data set, the target named is T14, ZFP SBS#922 (synthetic).
T14 chain: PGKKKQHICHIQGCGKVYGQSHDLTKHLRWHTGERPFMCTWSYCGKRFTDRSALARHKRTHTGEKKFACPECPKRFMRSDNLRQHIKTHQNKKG
In short, it runs like this: as §1

The next data set has as its target T15, ZFP SBS#908 (synthetic).
T15 chain: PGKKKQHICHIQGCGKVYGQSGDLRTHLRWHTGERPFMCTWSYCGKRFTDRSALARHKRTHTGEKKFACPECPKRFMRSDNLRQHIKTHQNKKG
In short, it runs like this:
as §1

In the next data set the target is ZFP SBS#923 (synthetic). In short, it runs like this: as §1
Sequence of ZFP SBS#923 (synthetic) (chain, as listed by the source): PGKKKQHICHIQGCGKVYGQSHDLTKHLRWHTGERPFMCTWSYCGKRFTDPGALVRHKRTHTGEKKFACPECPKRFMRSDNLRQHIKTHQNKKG
In a further data set the target is ZFP SBS#780 (synthetic). In short, it runs like this:
as §1

Another data set concerns the target ZFP SBS#779 (synthetic). In a few lines:
as §1

In another data set the target is T16, ZFP SBS#912 (synthetic).
T16 chain: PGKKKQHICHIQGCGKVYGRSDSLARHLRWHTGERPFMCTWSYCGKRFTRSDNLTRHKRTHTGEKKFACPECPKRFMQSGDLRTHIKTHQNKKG
In a few lines: as §1

Another data set has as its target ZFP SBS#783 (synthetic). In a few lines:
as §1

Another data set has as its target ZFP SBS#786 (synthetic). In a few lines: as §1
Another data set concerns the target ZFP SBS#785 (synthetic). In a few lines: as §1
The target in a further data set is ZFP SBS#781 (synthetic, UniProt P08047). In short, it runs like this:
as §1

In another data set the target is ZFP SBS#762 (synthetic, UniProt P08047). In a few lines:
as §1

For a further data set, the target named is T17, ZFP SBS#761 (synthetic).
T17 chain: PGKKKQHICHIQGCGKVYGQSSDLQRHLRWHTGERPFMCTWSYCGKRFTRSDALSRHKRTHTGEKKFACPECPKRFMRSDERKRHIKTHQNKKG
In a few lines: as §1

The target of a further data set is ZFP SBS#727 (synthetic, UniProt P08047). In short, it runs like this:
as §1

The target of a further data set is T18, ZFP SBS#735 (synthetic).
T18 chain: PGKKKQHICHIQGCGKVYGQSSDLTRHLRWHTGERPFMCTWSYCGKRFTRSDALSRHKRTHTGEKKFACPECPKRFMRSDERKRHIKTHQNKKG
In short, it runs like this: as §1

Sequence of ZFP SBS#785 (synthetic) (chain, as listed by the source): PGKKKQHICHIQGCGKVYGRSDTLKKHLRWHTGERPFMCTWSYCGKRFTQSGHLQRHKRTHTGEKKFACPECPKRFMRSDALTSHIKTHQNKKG
Sequence of ZFP SBS#780 (synthetic) (chain, as listed by the source): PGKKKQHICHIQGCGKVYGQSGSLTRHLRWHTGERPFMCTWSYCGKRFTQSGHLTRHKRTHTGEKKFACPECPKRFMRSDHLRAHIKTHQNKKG
Sequence of ZFP SBS#921 (synthetic) (chain, as listed by the source): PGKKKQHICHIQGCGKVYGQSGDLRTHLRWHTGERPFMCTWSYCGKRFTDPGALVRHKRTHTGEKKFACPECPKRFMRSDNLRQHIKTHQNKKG
Sequence of ZFP SBS#727 (P08047 other isoform, or with tags, fused parts or gaps): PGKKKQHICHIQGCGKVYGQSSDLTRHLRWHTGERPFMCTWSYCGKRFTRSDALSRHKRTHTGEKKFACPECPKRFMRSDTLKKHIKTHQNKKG
Sequence of ZFP SBS#762 (P08047 other isoform, or with tags, fused parts or gaps): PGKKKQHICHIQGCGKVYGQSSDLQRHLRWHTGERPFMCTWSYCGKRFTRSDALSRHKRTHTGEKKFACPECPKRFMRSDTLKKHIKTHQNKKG
Sequence of ZFP SBS#920 (synthetic) (chain, as listed by the source): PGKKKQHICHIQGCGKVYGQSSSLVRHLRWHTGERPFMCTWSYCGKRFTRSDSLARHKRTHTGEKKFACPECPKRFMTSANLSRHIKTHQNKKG
Sequence of ZFP SBS#916 (synthetic) (chain, as listed by the source): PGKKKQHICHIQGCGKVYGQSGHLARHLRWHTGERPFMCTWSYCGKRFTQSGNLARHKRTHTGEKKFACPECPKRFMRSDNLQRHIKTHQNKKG
Sequence of ZFP SBS#914 (synthetic) (chain, as listed by the source): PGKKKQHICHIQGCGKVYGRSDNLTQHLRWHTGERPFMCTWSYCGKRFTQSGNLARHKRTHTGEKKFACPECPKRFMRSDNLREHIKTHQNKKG
Sequence of ZFP SBS#909 (synthetic) (chain, as listed by the source): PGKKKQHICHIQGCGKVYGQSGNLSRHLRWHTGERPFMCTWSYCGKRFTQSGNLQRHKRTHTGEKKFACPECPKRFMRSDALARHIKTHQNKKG
Sequence of ZFP SBS#904 (synthetic) (chain, as listed by the source): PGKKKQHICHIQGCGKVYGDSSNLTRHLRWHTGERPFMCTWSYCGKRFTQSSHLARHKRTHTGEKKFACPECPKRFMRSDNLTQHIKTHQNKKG
Sequence of ZFP SBS#786 (synthetic) (chain, as listed by the source): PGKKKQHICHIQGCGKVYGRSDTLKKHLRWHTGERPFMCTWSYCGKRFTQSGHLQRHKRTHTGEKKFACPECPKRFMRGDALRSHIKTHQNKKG
Sequence of ZFP SBS#915 (synthetic) (chain, as listed by the source): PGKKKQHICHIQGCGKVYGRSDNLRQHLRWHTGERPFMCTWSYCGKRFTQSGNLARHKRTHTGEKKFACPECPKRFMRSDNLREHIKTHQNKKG

B1: GAGGGAGCGA (dsDNA)
DNA 1: GAGGGAGCGA
DNA 2: TCGCTCCCTC
As a reminder, the Kd is the concentration at which binding is half-saturated. Take B1: the Kd is 52 nM with ZFP SBS#750, 1.2 nM with ZFP SBS#827 and 2.75 nM in the data set with ZFP SBS#826.

B2: GTGGTGGTG (dsDNA)
DNA 1: GTGGTGGTG
DNA 2: CACCACCAC
As to B2, the Kd in the data set with ZFP SBS#905 stood at 1.15 nM; with ZFP SBS#926, 7.5 nM.

B3: GATGTGGTA (dsDNA)
DNA 1: GATGTGGTA
DNA 2: TACCACATC
The molecule B3 displayed an equilibrium dissociation constant (Kd) with ZFP SBS#920 of 4 nM.

B4: GCGGGGTCC (dsDNA)
DNA 1: GCGGGGTCC
DNA 2: GGACCCCGC
In turn, B4 gave a Kd with ZFP SBS#256 of 800 nM.

B5: GTGGAAGAA (dsDNA)
DNA 1: GTGGAAGAA
DNA 2: TTCTTCCAC
Consider B5, for which the Kd with ZFP SBS#909 is 16.4 nM.

B6: TTGGACGGCG (dsDNA)
DNA 1: TTGGACGGCG
DNA 2: CGCCGTCCAA
Turning to B6, the Kd came out at 37 nM with ZFP SBS#759, 148 nM in the data set with ZFP SBS#760, 112 nM with ZFP SBS#748 and 11.3 nM in the data set with ZFP SBS#749.

B7: GACGACGGC (dsDNA)
DNA 1: GACGACGGC
DNA 2: GCCGTCGTC
In the data set with ZFP SBS#431, B7 yielded a Kd of 100 nM.

B8: AAGGGTGAC (dsDNA)
DNA 1: AAGGGTGAC
DNA 2: GTCACCCTT
For the molecule B8, in the data set with ZFP SBS#904, the Kd worked out at 1 nM.

B9: ATGGACGGGT (dsDNA)
DNA 1: ATGGACGGGT
DNA 2: ACCCGTCCAT
On to B9, for which the Kd with ZFP SBS#776 was found to be 0.4 nM; with ZFP SBS#777, 3.4 nM.

B10: AGGGAGGATG (dsDNA)
DNA 1: AGGGAGGATG
DNA 2: CATCCTCCCT
In turn, B10 returned a Kd in the data set with ZFP SBS#787 of 4 nM.

B11: CAGGAAAAG (dsDNA)
DNA 1: CAGGAAAAG
DNA 2: CTTTTCCTG
For B11, the Kd is 1.26 nM with ZFP SBS#914 and 45.1 nM with ZFP SBS#915.

B12: GAGGAAGGA (dsDNA)
DNA 1: GAGGAAGGA
DNA 2: TCCTTCCTC
In the case of B12, in the data set with ZFP SBS#916, binding was put at a Kd of 1.3 nM.

B13: AAGGTCTCA (dsDNA)
DNA 1: AAGGTCTCA
DNA 2: TGAGACCTT
Regarding B13, the Kd with ZFP SBS#921 turned out to be 11 nM; in the data set with ZFP SBS#922, 4 nM; with ZFP SBS#908, 50 nM; with ZFP SBS#923, 2 nM.

B14: CGGGGAGCAG (dsDNA)
DNA 1: CGGGGAGCAG
DNA 2: CTGCTCCCCG
Regarding B14, the Kd in the data set with ZFP SBS#780 and in the data set with ZFP SBS#779 was 0.5 nM throughout.

B15: TCAGAGGTG (dsDNA)
DNA 1: TCAGAGGTG
DNA 2: CACCTCTGA
Regarding B15, binding with ZFP SBS#912 was characterised by a dissociation constant (Kd) of 0.135 nM.

B16: TTGGGAGCGG (dsDNA)
DNA 1: TTGGGAGCGG
DNA 2: CCGCTCCCAA
Regarding B16, the values for the dissociation constant (Kd) in the data set with ZFP SBS#783, with ZFP SBS#786 and with ZFP SBS#785 were 2000 nM, 2000 nM and 50 nM, respectively.

B17: GGGGAGCAGC (dsDNA)
DNA 1: GGGGAGCAGC
DNA 2: GCTGCTCCCC
In the case of B17, the affinity in the data set with ZFP SBS#781, expressed as Kd, was 4.25 nM.

B18: GCGGTGGCTC (dsDNA)
DNA 1: GCGGTGGCTC
DNA 2: GAGCCACCGC
As for B18, the Kd amounted to 18 nM with ZFP SBS#762, 6 nM in the data set with ZFP SBS#761, 0.1 nM with ZFP SBS#727 and 0.05 nM with ZFP SBS#735.
